Reference: the domain aggregation screens of Martell et al. (2025)

Test: soluble fraction after stress (log2 fold change); higher = more stays soluble; pooled small domains, quantitative proteomics
Details: stress: pH 4
Outline: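 Values are on a log2 scale, where higher means more of the domain stayed soluble after pH 4 stress. They are fold changes in the soluble amount of each domain from pooled custom libraries, measured by high-throughput quantitative proteomics. The fold change is taken to reflect aggregation propensity.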
With “HMSSWEEQLKIWAKNELASGNTDILARATVSFEQILIEAALTHTGGRKKTAAELLGWGRNTLTRKIKELHI” the “soluble fraction (log2)” value was -0.743. For “HMKLTEGETIFLNESDTADWKKIPGIGSVYASRIVKYRNLLGGFVSVNQLREVYGIDDELFAKIYPYI”, the “soluble fraction (log2)” value was -0.0375. In the case of “HMTKEGVNISITADGVQLSTESPNRVSIFNVNGTKVWEGIAPANVSLQKGVYILQTANGNTKFV”, the “soluble fraction (log2)” value is reported as -0.407. With “HMASLSEREHDVAVLILQGKTYAEIGQAIFISPRTVEHHVASIRRRLEAKSRSDLIAKLRLTIGGTED” the “soluble fraction (log2)” value was -1.15. For “HMLLNSLIDTLAAEKATVVPGTEVFKLYDTYGFPWELTEEIASERGFTIDHEGFEAAMKEQRERAREARV”, the “soluble fraction (log2)” value was 0.0336. With “HMDLLIFSPSLGQHVRDLKRVIDRLHQHGIPVRWQKAKLLREEIEYIGWTWKSGGLIDPTNV” the “soluble fraction (log2)” value was 0.337. In the case of “HMDIGTRQRIIAAAMELFRQKGMDGMSMRELAERAGVNKGLLHYYFTTKEAIFREVFVHQVEM”, the “soluble fraction (log2)” value is reported as -0.0208. With “HMEDVDTAALEKVIATAKGLNKNDYTATTWTTMQAALTNAEKALEAKKSQTSVDEAAKTLQAAIDGLKKAS” the “soluble fraction (log2)” value was -0.103. For “HMSWDNELLERAHKIIELYPQKRSALGPLLYLAQEKDGFISDDSIVEISNLVDITEVQVKSVSSFYSMY”, the “soluble fraction (log2)” value was -0.0573. In the case of “HMKKIYEEVSEAILTMIKNGTLKPGDKLLPVHQLAEQFQVGRSAVREALSALRAMGLIEMKQGEGTYVKNF”, the “soluble fraction (log2)” value is reported as -0.6. With “HMTNVETLVRMRLRSIRTTLGYSLDEIAERSNLSASTVSRIETGKRALSIDVLVPLAAALQVSVDDLLRAE” the “soluble fraction (log2)” value was -1.31. With “HMDESLLDYALREIKARIQNGTYPPGTKLSTQEISDSLGISRTPVVAAINRLVAQGVAEAIPRRGTIVAR” the “soluble fraction (log2)” value was 0.015. In the case of “HMQVAPQVERLLRVMGNETLSLSDIMGRMGLSDKKNFRESYLVPALRSAVIEMTIPDKPNSSLQKYRRIHE”, the “soluble fraction (log2)” value is reported as -0.125. In the case of “HMERKMKNNISDQTTYDTDKILNFNGKGYLNGLVIPNNYQIKEEGYYVFRQVALDGREQILYFTIQDLS”, the “soluble fraction (log2)” value is reported as -1.56. With “HMDDHLSFLAARLPDGASFDTDFDALGIDSFGMIALRAEVEERLGEQIADSDWTKVERPSEILAMLERK” the “soluble fraction (log2)” value was -1.76. In the case of “HMTTKGGLVRDTVLNEFRDSEFTRREVELVLNGVASERTIRGALSEMVERGELTQVNFGISTRYRLNQ”, the “soluble fraction (log2)” value is reported as -0.536. In the case of “HMGTVIGMGRITAGGVNFRETEGGGVIEKLERDTLVEVLTVPSVIDTTHWYQVRYNNRTGYVQAPFVQLLG”, the “soluble fraction (log2)” value is reported as 0.176. With “HMTLKTISLTEAIKNTNEGNYSKLVLDGNELTITEQGKETPSLKTYTEPGTSLKEQGFDLSKVEFEAREQS” the “soluble fraction (log2)” value was -0.011. For “HMYSDIERAMTNAPEQFANKQAVLDFLNKNRIKKSEVDDYRIASLLKLYDDASPISKTEIISQVRT”, the “soluble fraction (log2)” value was -0.0708. For “HMSTPTVDTKTKLDLYNLLYKKDLNYLDAYNFVLDNFGSDNIDIMFKMLGLDFTNWVIENKPE”, the “soluble fraction (log2)” value was 0.0493. For “HMTQFSLTTEEINVLKKSYSEFTDSDKELFNKILEKYNKFKNESSNDIAFEAKILEKLQEIENFYE”, the “soluble fraction (log2)” value was -1.45. For “HMEKIYLISDAAKQVNVEAHVLRYWEEELDIPAKRNELGHRYYTQEDIETFRKVKELKAQGIQLKGIKNIL”, the “soluble fraction (log2)” value was -1.07. For “HMGPLPIDSRYFNNLVPYTGITHVNSVIPEAERHIGLTVVVKTGSTYSEYWYRTGVTNSSLELKT”, the “soluble fraction (log2)” value was -0.726. For “HMNYHDTLSYLMDAFGGADNLQKLLGVGPSALSNYRRREHLPLNQARKLSNIAPEFGFNLDPYTLKISVID”, the “soluble fraction (log2)” value was -0.588. For “HMLSGNLTADAHVHRGLQALSDGRNEDALVDFTKATEVQADFAEAWNKRATVNYLLGRYDAAVLDIQKTLE”, the “soluble fraction (log2)” value was 0.0958. With “HMDDLIIQIELKQEGLEITGLKVLLKEDSVIDEQVKQTIRRKIERFLVNLYGNPNVYVSKFSMGI” the “soluble fraction (log2)” value was -1.36. In the case of “HMAEDLRTLDGIDEDLLRDLAQAGITTRDGLAELSIDELREITGVEPGEAEKIILAARAHWFETDE”, the “soluble fraction (log2)” value is reported as -1.19. For “HMGLDPVFKKWVDDNPWYTENRVLRALTHDYAEELKQTNPQLVGVEFLDQVKKRVQADHPEFFQ”, the “soluble fraction (log2)” value was -0.552. For “HMPTEPTARELEVTTLLAQGLSNREIAGALFISEHTVRNHLGHVFSKLGVSSRTQAVVRAGQLGWLR”, the “soluble fraction (log2)” value was -0.798. For “HMAFEITSAERTRLEDIARKGLTAYTAEWKQLPASEKKALNKTGLQDFLKSMAADADSAREEEA”, the “soluble fraction (log2)” value was 0.0412. For “HMKNKIYGTIVSSTSGEETVYKVFQVDSSKDITYLFRPDMIRLAHENNQALEFNEETGRGKRIEMSDLPK”, the “soluble fraction (log2)” value was -0.0332. For “HMGGSVYTVQKGDTLWSIAKEQLGSPLRYAEIYDLNKDVIEEAARGRGKKDSSNGHWLVVGTSLQIPEAT”, the “soluble fraction (log2)” value was -0.077. With “HMGGLALAEREVVEWLSQRNLLPSPDVVARAAAHPDGLGWLERSLAVLEGPRLFLGLGDLVPEP” the “soluble fraction (log2)” value was -1.02. With “HMTTIRQQAEVPLSAAGRRFDQALAEMFPAYSRSRLSGWIKAGAATLDGAPAAPRQLLRGGERVELDVELE” the “soluble fraction (log2)” value was -0.316. With “HMASFTDAQALEVKDLYPDWSKIPEGTHLEAGQRVRYNGNLYKVRTGQAHDKQSTWTPTDAASLFEAID” the “soluble fraction (log2)” value was 0.0558. With HMDSEQLSGLVNMGFSVYQAKTALEMFDNDIERAANYL the “soluble fraction (log2)” value was -0.871. In the case of “HMHLLPAREQVAAYLRKAILRQEIREGTILNLADTARQMGVSVTPVREALQLLAAQGLVRLRPNKGAVVMG”, the “soluble fraction (log2)” value is reported as 0.158. With “HMGKQIKEIVEEYYDSTSKNSPVGGSWKTSLDGVDLTSPNITIWTRTKIKYVDGSESIVTPQSL” the “soluble fraction (log2)” value was -0.528.
